The values below come from article PMC12830992, “Insights into the self-assembly and interaction of sars-cov-2 fusion peptides with biomimetic plasma membranes” (Nature Communications, 2025).

This data set concerns the molecule itself. The experiment in a line: atomic force microscopy (topography); peptide mixed at 5 mol% with plasma membrane lipid mixture, Langmuir-Blodgett monolayer compressed to 20 mN/m (liquid-expanded phase), transferred onto mica, imaged in air at room temperature, Peak Force mode.

B1: SARS-CoV-2 Spike fusion peptide FP1 (residues 816-837) (peptide)
peptide: SFIEDLLFNKVTLADAGFIKQY
notes: Spike (S) glycoprotein of SARS-CoV-2, S2 subunit fusion domain, residues 816-837
As to B1, the binding result was “binds”.

B2: SARS-CoV-2 Spike fusion peptide FP2 (residues 835-856) (peptide)
peptide: KQYGDCLGDIAARDLICAQKFN
notes: Spike (S) glycoprotein of SARS-CoV-2, S2 subunit fusion domain, residues 835-856
Consider B2, for which the binding result is reported as “binds”.
